B1: NR2F2 (parent)
chain: NIPFFPDLQITDQVALLRLTWSEL
B2: WDR41 (parent)
chain: HVGELIIWDALDWTMQAYERNFWD

Variants of: B1
Assay: protein stability index of a GFP-peptide fusion (GPS, HEK-293T) (PSI 1-6); higher = more stable
Conditions: c terminus: a fixed tail appended
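Note: lentivirally expressed fusions sorted by FACS into six bins by GFP to DsRed ratio, PSI derived from sequencing read proportions per bin multiplied by bin number.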

Protein stability index, by site and new letter:
P6: D 2.23; T 2.77; A 2.97; E 2.5; N 2.81; R 1.51; Y 3.14; H 2.31; V 3.65; F 3.43; G 3.94; Q 2.32; I 3.02; S 2.52; K 2; C 1.8; M 2.25
F5: P 1.49; N 1.73; E 1.67; A 1.98; W 1.68; L 1.56; C 3.66; T 1.49; Y 2.26; K 2.17; V 2.41; I 2.26; D 2; M 1.78; Q 2.13; R 2.34; H 1.79; S 2.16; G 1.7
N1: D 3.27; R 4.3; K 2.26; Q 1.1; E 2.36; L 2.23; S 1.75; P 2.45; F 3.02; W 2.72; T 2.02; H 2.44; C 2.81; Y 2.74; M 3.01
F4: D 2.44; P 2.58; S 2.04; E 2.22; K 2.12; A 2.34; T 2.03; G 2.2; C 2.63; M 2.26; L 3.09; Q 2.62; V 2.42; N 2.79; H 2.35; I 2.63; W 1.44; R 1.37; Y 2.56
P3: S 1.41; G 2.86; D 2.43; L 1.92; K 3.61; V 3.79; T 2.46; N 2.28; H 1.82; W 3.62; I 2.13; C 2.88; Q 3.08; A 3.65; E 2.12
D7: I 2.86; M 3.45; L 2.88; C 2.67; H 2.53; K 2.03; E 2.4; G 3.35; F 2.25; A 1.65
I2: Y 1.47; R 1.94; K 2.25; G 1.46; D 2.85; M 2.5; H 2.1; A 1.05; E 2.07; F 2.28; N 2.02; L 1.88; W 3.13; Q 1.78; C 2.42; S 2.38; V 2.03; P 2.9; T 2.01

Variants of: B2
Assay: as above
Conditions: c terminus: a fixed tail appended

Protein stability index: each site, then its substitutions
D24: E 3.24; I 3.06; K 1.4; H 4.96
E19: A 1.64; H 2.77; C 2.17; Q 3.24; N 1.91; D 1.67; I 2.09; P 1.72; T 1.44; V 1.87
E4: Q 2.46; S 2.34; K 1.84; L 2.92; Y 3.22; H 2.13; D 1.86; N 2.42; V 3.53; M 2.15; F 3.77; P 1.81; G 1.85
N21: E 2.14; L 3; S 2.11; Q 2.87; T 2.15; D 1.87; M 3.52; G 2.56; I 2.9
I7: N 2.19; K 1.96; L 1.93; G 1.8; Q 2.11; T 1.41; V 1.59; D 2.07; M 1.52; C 1.26; Y 2.71; R 1.99; E 2.41; H 2.17; W 2.44; S 2.33; P 2.87; A 1.87
F22: T 3.49; W 1.74; M 2.71; P 1.75; L 2.35; K 1.41; G 2.8; E 3.79; S 1.57
D12: F 3.35; V 2.81; Y 1.11; K 2.15; P 2.1
A10: T 3.56; N 1.05; D 1.6; H 1.61; K 1.09; G 1.95; S 1.63; P 1.5; W 3.36
W8: G 2.89; L 3.77; K 1.67; I 2.39; V 2.29; D 2.74; A 2.8; N 1.3; Q 1.98; R 2.78; H 1.61; M 2.85; Y 1.42; T 1.28; E 2.13; S 1.51; P 2.16; C 1.88
W13: K 2.37; A 1.98; N 1.69; T 1.97; Q 2.21; E 1.59; H 2.04; P 1.52; Y 2.84; D 2.07; S 3.29; F 4.66; C 2.51
Y18: A 3.71; R 2.81; N 2.18; S 1.07; K 2.17; H 1.6; C 3.15; E 1.12
W23: G 2.62; E 1.72; D 1.89; S 1.82; C 1.71; V 3.03; K 1.39; I 2.83; N 1.71; P 1.45; L 1.8
R20: E 1.46; N 2.98; P 2.05; G 1.75; K 1.5; L 3.16; S 1.56; C 1.24; T 3.97; A 1.32
M15: S 1.88; D 1.76; Q 2.44; T 1.05; K 3.06; G 1.06
D9: T 3.42; R 2.69; C 2.29; K 2.07; F 2.57; L 1.54; H 2.88; M 3; W 2.99; P 3.61
I6: Q 1.62; P 2.41; R 1.55; W 2.51; E 1.36; T 1.87; N 2.17; A 1.75; G 1.22; Y 2.39; C 1.47; H 1.59; S 1.66; M 2.35; K 2.75; D 1.81
A17: T 1.74; W 3.37; F 3.37; H 1.63; C 2.5; I 1.15; G 1.81; N 4.42; E 2.26; P 1.76; K 2.09
L5: D 2.17; P 1.99; N 1.93; R 1.5; G 1.92; M 1.97; Q 2.13; A 1.95; K 2.21; F 3.54; S 1.47; Y 3.11; H 1.56; T 1.94
Q16: I 2.45; G 1.78; M 2.63; C 2.77
T14: K 2.31; G 2.08; N 1.42; D 1.68; Q 1.38; Y 4.99; S 1.24; V 2.54; P 2.28
L11: I 3.82; D 1.77; C 2.2; Y 2.08; N 2.23; V 3.1; K 2.67; Q 2.86; P 2.03; T 1.46; A 1.61; R 2.83; H 2.06

Source: the supplement of paper PMC10567573
